Like-named read-outs stand apart in the source and are kept apart here.

Test [1] addresses T1, human LAIR-1-CD3ζ chimeric receptor on NFAT-GFP reporter cells (human, UniProt P20963 31-164, limits assumed). Kind of test: cell-based or functional assay.
The target of test [2] is T2, human LAIR-2 (form in the assay not stated) (human, UniProt Q6ISS4 22-152).
T2 sequence: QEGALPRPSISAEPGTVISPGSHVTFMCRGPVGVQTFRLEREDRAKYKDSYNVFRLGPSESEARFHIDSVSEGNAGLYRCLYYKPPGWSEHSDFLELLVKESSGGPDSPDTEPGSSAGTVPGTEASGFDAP
Kind of test: ELISA and FACS screening. A general note: In an ELISA, binding on a coated surface is turned into a signal by an enzyme label.

For the next test, the target named is T3, human LAIR-1-ECD (human, UniProt Q6GTX8 22-165).
T3 construct: Recombinant, expressed in mammalian cells; also called extracellular region of human LAIR-1
T3 chain: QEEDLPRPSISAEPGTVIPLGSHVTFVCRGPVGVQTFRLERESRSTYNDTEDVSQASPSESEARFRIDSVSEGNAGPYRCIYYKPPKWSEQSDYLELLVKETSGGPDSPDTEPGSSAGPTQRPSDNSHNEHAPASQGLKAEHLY
Kind of test: SPR (Biacore); antibody captured by anti-Fc; LAIR-1-ECD injected.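 Note: Anti-Fc immobilized on a CM5 chip, LAIR-1-ECD (human or cynomolgus) injected at 3.3-10 nM and 25 °C, kinetics fitted by simultaneous global fit.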 On the technique in general: Surface plasmon resonance follows binding to a sensor surface in real time, without labels.

Another test deals with T4, cyno LAIR-1-ECD (cynomolgus monkey).
T4 construct: Recombinant, expressed in mammalian cells; also called extracellular region of cyno LAIR-1
T4 chain: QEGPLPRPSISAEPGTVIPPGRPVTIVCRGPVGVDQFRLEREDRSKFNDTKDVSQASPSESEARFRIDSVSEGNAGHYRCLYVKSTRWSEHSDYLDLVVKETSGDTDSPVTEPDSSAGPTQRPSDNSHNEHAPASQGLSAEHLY
Described as above.

The target of test [3] is T5, mouse LAIR-1 (form in the assay not stated) (mouse, UniProt Q8BG84 22-144, limits assumed).
T5 sequence: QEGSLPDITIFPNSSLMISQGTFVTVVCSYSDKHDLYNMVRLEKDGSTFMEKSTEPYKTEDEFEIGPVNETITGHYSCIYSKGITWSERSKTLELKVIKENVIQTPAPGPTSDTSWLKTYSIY
Kind of test: not described.

For test [4], the target named is T1, human LAIR-1-CD3ζ chimeric receptor on …. Kind of test: cell-based or functional assay. This is another data set of the same source.

B1: anti-LAIR-1 antibody ch61H4 (antibody, V domains shown)
VH: EVQLQQSGPEVLKPGASVKISCKASGYTFTDYYYMNWVKQSHGKSLEWIGYIYPNNGATSYNQKFKGKATLTVDKSSSTAYMELRSLTSEDSAVYYCARDGYSSNYYTMDYWGQGTSVTVSS
VL: DVQMIQSPSSLSASLGDIVTMTCQASQGTSINLNWFQQKPGKAPKLLIYGASNLEDGVPSRFSGSRYGTDFTLTISSLEDEDMATYFCLQHTYLPYTFGGGTKLEIK
Take B1: in test [1], the “IC50 (read off the curve): % GFP+ human LAIR-1 reporter cells on coated MARCO-his” value is about 0.8 nM, the “IC50 (read off the curve): % GFP+ human LAIR-1 reporter cells on coated collagen 1” value was about 2 nM and the “IC50 (read off the curve): % GFP+ human LAIR-1 reporter cells on coated collagen 4” value is about 1 nM.

B2: anti-LAIR-1 antibody 61H4 (antibody, V domains shown)
VH: EVQLQQSGPEVLKPGASVKISCKASGYTFTDYYYMNWVKQSHGKSLEWIGYIYPNNGATSYNQKFKGKATLTVDKSSSTAYMELRSLTSEDSAVYYCARDGYSSNYYTMDYWGQGTSVTVSS
VL: DVQMIQSPSSLSASLGDIVTMTCQASQGTSINLNWFQQKPGKAPKLLIYGASNLEDGVPSRFSGSRYGTDFTLTISSLEDEDMATYFCLQHTYLPYTFGGGTKLEIK
notes: Monoclonal antibody from immunized mice (hybridoma)
In the case of B2, in test [2], the binding result was “no binding”. Further, in the test with human LAIR-1-ECD, the Kd is 0.46 nM, the koff came to 4.9e-05 s⁻¹ and the kon amounted to 110000 M⁻¹ s⁻¹. In the test with cyno LAIR-1-ECD, the Kd came to 9.6 nM, the koff stood at 0.00077 s⁻¹ and the kon was determined as 80000 M⁻¹ s⁻¹. Moreover, the binding result in test [3] was “no binding”.

B3: anti-LAIR-1 antibody ch47A1 (antibody, V domains shown)
VH: EVQLVESGGGLVQPKGSLKLSCAASGFTFNTYAIHWVRQAPGKGLEWVARIRSKSTNYATYYADSVKDRFTISRDDSQSMVFLQMNNLKTEDTAMYYCVRENWYYYALDYWGQGTSVTVSS
VL: DIQMTQSPASLSASVGETVTITCRASGNIHNYLTWYQQKQGKSPQVLVYNAKTLEDGVPSRFSGSESGTQYSLKINSLQPEDFGSYYCQHFWSTPFTFGSGTKLEIK
Turning to B3, in test [1], the “IC50 (read off the curve): % GFP+ human LAIR-1 reporter cells on coated MARCO-his” value was about 0.04 nM, the “IC50 (read off the curve): % GFP+ human LAIR-1 reporter cells on coated collagen 1” value is about 0.1 nM and the “IC50 (read off the curve): % GFP+ human LAIR-1 reporter cells on coated collagen 4” value was about 0.08 nM. In test [4], the “IC50 (read off the curve): % GFP+ human LAIR-1 reporter cells on coated C1 complex” value is about 0.02 nM, the “IC50 (read off the curve): % GFP+ human LAIR-1 reporter cells on coated COLEC12” value was about 0.1 nM, the “IC50 (read off the curve): % GFP+ human LAIR-1 reporter cells on coated MARCO-his” value is about 0.06 nM and the “IC50 (read off the curve): % GFP+ human LAIR-1 reporter cells on coated MBL” value was about 0.2 nM. Besides, in test [4], the “IC50 (read off the curve): % GFP+ human LAIR-1 reporter cells on coated SP-D” value was about 0.05 nM, the “IC50 (read off the curve): % GFP+ human LAIR-1 reporter cells on coated collagen 1” value was about 0.05 nM and the “IC50 (read off the curve): % GFP+ human LAIR-1 reporter cells on coated collagen 4” value is about 0.04 nM.

B4: anti-LAIR-1 antibody 47A1 (antibody, V domains shown)
VH: EVQLVESGGGLVQPKGSLKLSCAASGFTFNTYAIHWVRQAPGKGLEWVARIRSKSTNYATYYADSVKDRFTISRDDSQSMVFLQMNNLKTEDTAMYYCVRENWYYYALDYWGQGTSVTVSS
VL: DIQMTQSPASLSASVGETVTITCRASGNIHNYLTWYQQKQGKSPQVLVYNAKTLEDGVPSRFSGSESGTQYSLKINSLQPEDFGSYYCQHFWSTPFTFGSGTKLEIK
notes: as for B2
As to B4, the binding result in test [2] was “no binding”. Moreover, in the test with human LAIR-1-ECD, binding was put at a Kd of 0.92 nM, the koff was 0.00055 s⁻¹ and the on-rate (kon) turned out to be 590000 M⁻¹ s⁻¹. In the test with cyno LAIR-1-ECD, the affinity, expressed as Kd, was 18 nM; the koff came to 0.0057 s⁻¹; the kon was determined as 320000 M⁻¹ s⁻¹. Besides, the binding result in test [3] is on record as “no binding”.

B5: anti-LAIR-1 antibody ch108D10 (antibody, V domains shown)
VH: EVQLVETGGGLVQPKGSLKLSCAASGFTFNINAMNWVRQAPGKGLEWVARIRTKNNNYATYYADSVKDRFTISRDDSESMLYLQMNNLKTEDTAMYYCVRDRYGGAMAYWGQGTSVTVSS
VL: DIQMTQSSSSFSVSLGDRVTITCKASEDIYNRLAWYQQKPGNVPRLLISSATSLETGVPSRFSGSGSGKDYTLSLTSLQSEDVATYYCQQYWTIPYTFGGGTKLEIK
On to B5, for which, in test [1], the “IC50 (read off the curve): % GFP+ human LAIR-1 reporter cells on coated MARCO-his” value is about 0.01 nM, the “IC50 (read off the curve): % GFP+ human LAIR-1 reporter cells on coated collagen 1” value was about 0.05 nM and the “IC50 (read off the curve): % GFP+ human LAIR-1 reporter cells on coated collagen 4” value was about 0.04 nM. In test [4], the “IC50 (read off the curve): % GFP+ human LAIR-1 reporter cells on coated C1 complex” value was about 0.01 nM, the “IC50 (read off the curve): % GFP+ human LAIR-1 reporter cells on coated COLEC12” value was about 0.03 nM, the “IC50 (read off the curve): % GFP+ human LAIR-1 reporter cells on coated MARCO-his” value is about 0.03 nM and the “IC50 (read off the curve): % GFP+ human LAIR-1 reporter cells on coated MBL” value is about 0.04 nM. Further, in test [4], the “IC50 (read off the curve): % GFP+ human LAIR-1 reporter cells on coated SP-D” value is about 0.02 nM, the “IC50 (read off the curve): % GFP+ human LAIR-1 reporter cells on coated collagen 1” value is about 0.03 nM and the “IC50 (read off the curve): % GFP+ human LAIR-1 reporter cells on coated collagen 4” value was about 0.02 nM.

B6: anti-LAIR-1 antibody 108D10 (antibody, V domains shown)
VH: EVQLVETGGGLVQPKGSLKLSCAASGFTFNINAMNWVRQAPGKGLEWVARIRTKNNNYATYYADSVKDRFTISRDDSESMLYLQMNNLKTEDTAMYYCVRDRYGGAMAYWGQGTSVTVSS
VL: DIQMTQSSSSFSVSLGDRVTITCKASEDIYNRLAWYQQKPGNVPRLLISSATSLETGVPSRFSGSGSGKDYTLSLTSLQSEDVATYYCQQYWTIPYTFGGGTKLEIK
notes: as for B2
Turning to B6, the binding result in test [2] is given as “no binding”. Also, in the test with human LAIR-1-ECD, binding was characterised by a dissociation constant (Kd) of 0.4 nM, the koff stood at 0.00043 s⁻¹ and the kon was 1.1e+06 M⁻¹ s⁻¹. In the test with cyno LAIR-1-ECD, this molecule yielded a Kd of 21 nM, a dissociation rate constant (koff) of 0.0039 s⁻¹ and a kon of 190000 M⁻¹ s⁻¹. For the same molecule, the binding result in test [3] is “no binding”.

B7: anti-LAIR-1 antibody 57D12 (antibody, V domains shown)
VH: QVQLQQSGAELARPGASVNLSCRASGYSFTSFGISWVKQRTGQGLEWIGEIYPRSDNTFYNEKFKGKATLTADKSSSTAYMELRSLTSEDSAVYFCARHFGSSSFDYWGQGTTLTVSS
VL: ENVLTQSPPIMAASLGQKVTMTCSASSSVSSIYFHWYQQKSGTSPKPLIHRASNLASGVPARFSGSGSGTSYSLTISSVEAEDDATYYCQQWSGYPLTFGGGTKLEIK
notes: as for B2
In the case of B7, in test [2], the binding result was “no binding”. In the test with human LAIR-1-ECD, the Kd turned out to be 0.27 nM, the koff was 4.5e-05 s⁻¹ and the kon was found to be 170000 M⁻¹ s⁻¹. In the test with cyno LAIR-1-ECD, this molecule yielded a Kd of 7.3 nM, an off-rate constant (koff) of 0.00078 s⁻¹ and a kon of 110000 M⁻¹ s⁻¹. For the same molecule, the binding result in test [3] was “no binding”.

B8: anti-LAIR-1 antibody 62G10 (antibody, V domains shown)
VH: EVQLVETGGGLVQPKGSLKLSCATSGFTFNINAMNWVRQAPGKGLEWVARIRTKNNNFATYYADSVKDRFTISRDDSQSMLYLQMNNLKTEDTAMYYCVRGPYFDYWGQGTTLTVSS
VL: DIQMTQSPASQSASLGESVTITCLASQTIGTWLAWYQQKPGKSPQLLIYAATSLADGVPSRFSGSGSGTKFSFKISNLQAEDFVTYYCQQLYSTPYTFGGGTKLEIK
notes: as for B2
With B8, the binding result in test [2] and in test [3] was “no binding” each time. The Kd with human LAIR-1-ECD turned out to be 0.32 nM; in the test with cyno LAIR-1-ECD, 5.1 nM. The koff in the test with human LAIR-1-ECD was 0.00018 s⁻¹; with cyno LAIR-1-ECD, 0.001 s⁻¹. Further, the figures for the association rate constant (kon) in the test with human LAIR-1-ECD and in the test with cyno LAIR-1-ECD were 550000 M⁻¹ s⁻¹ and 200000 M⁻¹ s⁻¹, respectively.

B9: anti-LAIR-1 antibody 47H1 (antibody, V domains shown)
VH: EVQLVETGGGLVQPKGSLKLSCAASGFTFNINAMNWVRQAPGKGLEWVARIRTKNNNYATFYADSVKDRFTISRDDSQSMLYLQMNNLKTDDTAMYYCVRDRAGFFAYWGQGTPVTVSA
VL: DIQMTQSPASQSASLGESVTITCLASQTIGTWLGWYRQKPGKSPQLLIYAATSLADGVPSRFSGSGSGTKFSFKISSLQAEDFVIYYCQQLYSTPLTFGSGTKLEIK
notes: as for B2
Consider B9, for which, in test [2], the binding result is on record as “no binding”. In the test with human LAIR-1-ECD, this molecule had a Kd of 0.087 nM, a koff of 0.0001 s⁻¹ and a kon of 1.2e+06 M⁻¹ s⁻¹. In the test with cyno LAIR-1-ECD, the dissociation constant Kd worked out at 2.5 nM, the koff amounted to 0.00044 s⁻¹ and the kon worked out at 180000 M⁻¹ s⁻¹. Also, in test [3], the binding result is reported as “no binding”.

The term Kd denotes a measure of binding affinity in units of concentration. A high value points to a looser complex. What is called koff is a measure of how fast the partners let go of each other. The term kon denotes the rate constant with which the complex forms.

The record behind these values is patent publication US20220041711A1 (NGM BIOPHARMACEUTICALS, published 2022).
